# Patent publication US20110286981A1 (ZEALAND PHARMA A S, published 2011)
# Target: human glucagon-like peptide 1 receptor (human, UniProt P43220 24-463)
# Assay: cell-based or functional assay
# human glucagon-like peptide 1 receptor, sequence (P43220 24-463): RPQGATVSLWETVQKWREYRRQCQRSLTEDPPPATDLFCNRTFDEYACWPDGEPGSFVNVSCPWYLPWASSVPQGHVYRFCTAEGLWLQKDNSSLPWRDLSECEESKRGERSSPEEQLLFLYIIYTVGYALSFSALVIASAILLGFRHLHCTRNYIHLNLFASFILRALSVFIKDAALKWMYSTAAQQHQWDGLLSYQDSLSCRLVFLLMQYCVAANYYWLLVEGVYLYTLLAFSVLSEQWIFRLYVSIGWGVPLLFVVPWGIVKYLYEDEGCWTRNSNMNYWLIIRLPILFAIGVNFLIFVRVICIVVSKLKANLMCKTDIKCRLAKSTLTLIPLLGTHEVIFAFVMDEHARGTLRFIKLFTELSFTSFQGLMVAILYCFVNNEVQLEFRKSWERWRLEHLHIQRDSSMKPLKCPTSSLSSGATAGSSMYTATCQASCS
row,GLP-1R EC50 (cAMP formation in HEK293 cells expressing human GLP-1-R) [nmol],Binder
1,0.16,H-HSQGTFTSDYSKYLDERRAKDFIRWLLSA-NH2 [L006-0128]
2,0.15,H-HSQGTFTSDYSKYLDSRRAQDFIEWLLSA-NH2 [L006-0090]
3,0.07,H-HSQGTFTSDYSKYLDERRAKDFIQWLLSA-NH2 [L006-0084]
4,0.14,H-HSQGTFTSDYSKYLDSRRAKDFIEWLLSA-NH2 [L006-0081]
5,0.16,H-HSQGTFTSDYSKYLDKRRAEDFIKWLLSA-NH2 [L006-0094]
6,0.2,H-HSQGTFTSDYSKYLDERRAKDFIDWLLSA-NH2 [L006-0129]
7,0.09,H-HSQGTFTSDYSKYLDERRAQDFIEWLLSA-NH2 [L006-0082]
8,0.53,H-HSQGTFTSDYSKYLDERAAKDFIEWLLSA-NH2 [L006-0108]
9,0.29,H-HSQGTFTSDYSKYLDERRAKDFIEWLLRA-NH2 [L006-0138]
10,0.07,H-HSQGTFTSDYSKYLDDRRARDFIDWLLSA-NH2 [L006-0093]
11,0.22,H-HSQGTFTSDYSKYLDERRAKDFIEWLLAA-NH2 [L006-0136]

# Target: human glucagon receptor (human, UniProt P47871 26-477)
# Assay: cell-based or functional assay
row,GLUR EC50 (cAMP formation in HEK293 cells expressing human Glucagon-R) [nmol],Binder
1,0.22,H-HSQGTFTSDYSKYLDERRAKDFIRWLLSA-NH2 [L006-0128]
2,0.22,H-HSQGTFTSDYSKYLDSRRAQDFIEWLLSA-NH2 [L006-0090]
3,0.13,H-HSQGTFTSDYSKYLDERRAKDFIQWLLSA-NH2 [L006-0084]
4,0.23,H-HSQGTFTSDYSKYLDSRRAKDFIEWLLSA-NH2 [L006-0081]
5,0.25,H-HSQGTFTSDYSKYLDKRRAEDFIKWLLSA-NH2 [L006-0094]
6,0.24,H-HSQGTFTSDYSKYLDERRAKDFIDWLLSA-NH2 [L006-0129]
7,0.81,H-HSQGTFTSDYSKYLDERAAKDFIEWLLSA-NH2 [L006-0108]
8,0.38,H-HSQGTFTSDYSKYLDERRAKDFIEWLLRA-NH2 [L006-0138]
9,0.1,H-HSQGTFTSDYSKYLDDRRARDFIDWLLSA-NH2 [L006-0093]
10,0.33,H-HSQGTFTSDYSKYLDERRAKDFIEWLLAA-NH2 [L006-0136]
